Experimental data from the DeepSol protein solubility set.

Experiment: soluble on expression in E. coli; label from the status in PepcDB or PDB records

SLETKVAARDLSSLLSHCEAPVAALTVTAFKCKASACSVAPAPGSNTGLGALMSMAQAAQGLQTFPNIGDGLSNALTTALKTTGCFKVMAREDFEDLRREAEAAGITLKSASADYLVTGAITSLAVGAKTQSFGGGFVPLVGAVSRSTKSANISIDVRLVDVKASEVKASQTFDVSNERSSWGAGGAGWGGSGALFGAASSTQSPELDSVANESVIQAANYIVTQVAGSAAIPPVAAITK
soluble on expression in E. coli: soluble

MRHDGRQHDELRPITFDLDFISHPEGSVLITAGNTKVICNASVEDRVPPFLRGGGKGWITAEYSMLPQATNQQTIQESSKGKISGRTMEIQRLIGRALRAVVDLEKLGERTIWIDCDVIQADGGTRTASITGAFLAMAIAIGKLIKAGTIKTNPITDFLAAISVGIDKEQGILLDLNYEEDSSAEVDMNVIMTGSGRFVELQGTGEEATFSREDLNGLLGLAEKGIQELIDKQKEVLGDSLPELK
soluble on expression in E. coli: soluble

MTFAEYFKNWYIFYKKPKVSKVTLNRYQYTYNVINEYFGNKLLKDITRANYQKFIVKYGQNHSPNTMKMINNCIKACVKNAVYDEEIKKDFTYNIELISNRDNVVQLEHHHHHH
soluble on expression in E. coli: not soluble

MPQQTVEVKEVDVLIRGIWRKKKFTDIQKGQTFKIEENGRTKKYIARTDPYWDDMFETYIIDLLDKNKIRRNKLEHHHHHH
soluble on expression in E. coli: not soluble

MRYIRLCIISLLATLPLAVHASPQPLEQIKLSESQLSGRVGMIEMDLASGRTLTAWRADERFPMMSTFKVVLCGAVLARVDAGDEQLERKIHYRQQDLVDYSPVSEKHLADGMTVGELCAAAITMSDNSAANLLLATVGGPAGLTAFLRQIGDNVTRLDRWETELNEALPGDARDTTTPASMAATLRKLLTSQRLSARSQRQLLQWMVDDRVAGPLIRSVLPAGWFIADKTGAGERGARGIVALLGPNNKAERIVVIYLRDTPASMAERNQQIAGIGAALIEHWQR
soluble on expression in E. coli: soluble

MAIKNAFYAQSGGVTAVINASACGVIQTARKHPDQIGKVYAGRNGIIGALKEELIDTSLESDDAIQALIHTPGGAFGSCRYKLKNISENQREYERLIEVFRAHDIGYFFYNGGGDSQDTAYKVSQLADRMGYPITCIGVPKTVDNDLPFTDCCPGFGSVAKYIATSTLEASLDIKSMCETSTKVFILEVMGRHAGWIAAAGGLAGQSEGEPPHVILFPEIPFNREKFLERVDQCVRDYGYCVVVASEGAQYEDGRFVADAGAKDAFGHTQLGGVAPALANMVKQALGHKYHWAVADYLQRAARHIASATDVEQAYAVGKAAVEMALAGKQALMPTIVRDQAKPYRWSIGEANLSEVANQEKKMPIHYITDNGFGITQDCRDYLQPLIAGESFPPFDDGLPRVAKLKNQLVEKKLRTEFEL
soluble on expression in E. coli: soluble

SLPAPTQLFFPLIRNCELSRIYGTACYCHHKHLCCSSSYIPQSRLRYTPHPAYATFCRPKENWWQYTQGRRYASTPQKFYLTPPQVNSILKANEYSFKVPEFDGKNVSSILGFDSNQLPANAPIEDRRSAATCLQTRGMLLGVFDGHAGCACSQAVSERLFYYIAVSLLPHETLLEIENAVESGRALLPILQWHKHPNDYFSKEASKLYFNSLRTYWQELIDLNTGESTDIDVKEALINAFKRLDNDISLEAQVGDPNSFLNYLVLRVAFSGATACVAHVDGVDLHVANTGDSRAMLGVQEEDGSWSAVTLSNDHNAQNERELERLKLEHPKSEAKSVVKQDRLLGLLMPFRAFGDVKFKWSIDLQKRVIESGPDQLNDNEYTKFIPPNYHTPPYLTAEPEVTYHRLRPQDKFLVLATDGLWETMHRQDVVRIVGEYLTGMHHQQPIAVGGYKVTLGQMHGLLTERRTKMSSVFEDQNAATHLIRHAVGNNEFGTVDHERLSKMLSLPEELARMYRDDITIIVVQFNSHVVGAYQNQE
soluble on expression in E. coli: not soluble

MGSDKIHHHHHHMSWSSAIFTGAVVHQRHRPKKHSLRYQVFCLLVDLDELPAIDKSLWLLGYNRRAILRIDDRDHGLGIPGGLKAWVANHVERAGLNTEGMKVSMLCYPRMFGYVFNPLTLYYCYGPSGTLLALLYEVENTFHERHTYVIPASVEEDGAIRHACAKQMYVSPFMPMECLYRFKIVPPGETVTVAINEADEQGPLLYASFCGKRRTLDDRALAKVLVRYPLMTLKVMGAIHWEALKLWVKGVPLHRHRKAQNPIASSIIPPEAANARSPS
soluble on expression in E. coli: not soluble

DSMADITACPGTDTCNLGISSSTGLSVEIEKMLLEEFPDTVFNKNIKIKISGCMNACGQHTIGNIGFHGMSIKNGTNVLPAMQVMLGGGLEPDGTGTIADKILKLPTRRCVEAVREILTDYDTNATEGEYFNDYYRRQVAAEKMYFYKLLKPLSDLETLTELDYIDL
soluble on expression in E. coli: not soluble

MRSKGFLHLDTEIVVPFFDVDMMNIVWHGHYVKYLEVARCALLDHIGHNYMQMLESGYGWPVIDLQLRYVRSAVFGQKLNVRASLVEWENRLKINYLITDADTGERLTRASTVQVAVDRDSHEMQLASPQVFIDAVKRALPLEHHHHHH
soluble on expression in E. coli: soluble

MGEVKDLGMADHGGFDLKIGARVVLEDVKLGDSIAVNGTCLTVTEFNAEEFTVGLAPETLRKTSLEELKKGSPVNLERALQPVSRMGGHVVQGHVDGTGVIESMEVEGDSLWVKVKADKGLLKYIVPKGFVAVDGTSLTVVDVFDEESCFNFMMIAYTQQNVVIPTKKIGQKVNLEVDIMGKYVERLLTSGGFSKGN
soluble on expression in E. coli: soluble

MFTGIIEETGTIESMKKAGHAMALTIKCSKILEDVHLGDSIAVNGICLTVTDFTKNQFTVDVMPETVKATSLNDLTKGSKVNLERAMAANGRFGGHFVSGHVDGTAEITRIEEKSNAVYYDLKMDPSLTKTLVLKGSITVDGVSLTIFGLTEDTVTISLIPHTISETIFSEKTIGSKVNIECDMIGKYMYRFLHKANENKTQQTITKAFLSENGF
soluble on expression in E. coli: soluble

NTDYYGLDYALSFNQVEIEEKRIVIAGSGGIARTVIRYMLDHGAHRVDVLTRNAQNARRNLDIPGIGLHENIDEDYDIYVNCTPLGTLGDGDPFSTVDFRSGRTGIDLVYNPPDTPFLKRMRNAGGRTVSGLDVFIGQGLRTLELVFGIRPDSIFREYAVEALNEIR
soluble on expression in E. coli: not soluble

MVASESILQALQTVIDPNTGKDLVTTRAIRNLEVNGADVTFDAQLGYPAKSQIPALRRALIAAARGVAGVDNVSVNMQSVIETHAVPRGIALLPNVKNVIAVASGKGGVGKSTTAVNLALALAAEGARVGLLDADIYGPSQAQMMGIEGRPQSEDGKTMEPLENYGVQVMSIGFLVDADEAMIWRGPMAVQALEQLLRQTNWKNLDYLVIDMPPGTGDIHLTLSQKVPVTGAVIVTTPQDIALLDARKGVKMFEKVGVPIVGVVENMAVHVCSQCGHAEHIFGQGGGQRMAQDYGLAYLGALPLDINIRQQADGGRPSVVADPDGEVAGLYKDVARQVAVAVAAMGKDYSSKFSSISISRAPAGGAAALEHHHHHH
soluble on expression in E. coli: soluble

MSLTPSMRRTRIVCISDTHNCQVKLPEGDVLIHAGDLTNQGSHAELAKTVAWLEKQDFEAKIVIAGNHDITLDPEFYAEHGLYFHNKNPQSHDECLRLFTSSPSITYLSHGSANISLTSPSGPRTHFKVFGSPYSPRHGLWAFYYDAPQNPSNWSDLTSLWESIPLDTDIVVTHTPPRMHCDETDERRATGCEALRQALWRVRPQLVVCGHIHDGRGAERVMWDLNCRNVAYQEESVVRWEDPGQGNNKTCLVDLTGKKAPSEGHHHHHH
soluble on expression in E. coli: soluble

MRTSIATVCLSGTLAEKLRAAADAGFDGVEIFEQDLVVSPHSAEQIRQRAQDLGLTLDLFQPFRDFEGVEEEQFLKNLHRLEEKFKLMNRLGIEMILLCSNVGTATINDDDLFVEQLHRAADLAEKYNVKIAYEALAWGKFVNDFEHAHALVEKVNHKALGTCLDTFHILSRGWETDEVENIPAEKIFFVQLADAPKLSMDILSWSRHHRVFPGEGDFDLVKFMVHLAKTGYDGPISLEIFNDSFRKAEVGRTAIDGLRSLRWLEDQTWHALNAEDRPSALELR
soluble on expression in E. coli: not soluble

METKYRKPFVYEFITEKEVMNAANDLVKKGIEQKDIYVLTHEKERTDRIADNADVNTIGIKEEGLGTSIINVFQKTGDQLRNKMQELGLNEEEANFYEEKLDEGKILLFVKDLERVGEWLHERRCMYSI
soluble on expression in E. coli: not soluble

SLAQLDKNDPARGVLAAIAANASKIAEYDPRVRADEYDSVHQMRVATRELRSHLQTFEGILGGEDYLNLEKELKVLANILGRARDAEVVEERLSNLINTEVGDSIEEETKKELLEDLGAEYRREHERVVRALDNDRYTDLLQALENLLVDPPLITEVEEPEATEAPESAETTESTDVSEATEEADAEAESVEEATEQEESADAPESADLDALDEEYSPGSQAPVEEPKEPKKVDAALVLLEHLDKAHVKLVKLEKKARSQWDDLSIPMLEREENFHNLRKAAKKLRYSAEAVGKATTVETKKLYKACSGLQSVLGDYQDAITSRNELLRRAQVARRQGRDTFAYGILYQHEQTLSREYLTGYSDAFKSVEKAYAKLAEDTAKRSKKNKRK
soluble on expression in E. coli: soluble

MGSDKIHHHHHHMSKVFIIGLPRTGTTSISVALLEMGLSVAHTAFTKKAFEMADAVTDAPCFSDYMHLDRIFPHAKFIYLTREMAKWVPSIIMLLEKMAPHLDPKTGKFNPILKRSFHHTFPGTLPLTENELIDCYTRHEQAVLSYFEGRDDFLSIDISKQGSLLEMKMFLGIEAQGSADFPKLNVGRDVASWKDYKHPNKINSNLAGVEHRKYYDYALVDYRTY
soluble on expression in E. coli: not soluble

AHHHHHHASAKWVCKICGYIYDEDAGDPDNGISPGTKFEELPDDWVCPICGAPKSEFEKLEDGSQGYSRRGNMMIILKPLIEVDLPEDFVDIIKAKLKGQTVKSGEIITVDILGKPIEFKVLYAEPSPVKVTQKTQIKFAKGNVFEVSLDFKAKDCIITDAFIVLTGESEVLILNHNFEEIRRIEFENLKKIVVKGDLVVLIGEEKVKILKLQ
soluble on expression in E. coli: soluble

MAQTTLIKNVNGYTFTDNSLTQFSAISFTDDIINKVYPIGAVLPASKGVIVIDGQGQTMLPGLIDAHGHVIGYGHSLEHHHHHH
soluble on expression in E. coli: not soluble

MNRMEYNPIKKVVSGNYAAAYAALHARVQVVAAYPITPQTSIIEKIAEFIANGEADIQYIPVESEHSAMAACIGASATGARVFTATSAQGLALMHEMLHWAAGSRLPIVMVNVNRAMAPPWSVWDDQTDSLSQRDTGWMQFYAENNQEVYDGVLMAYKVAETVNIPTMIIESAFILSHTYEVVNMIPQELVDEFLPPRKPLYTLTDFENPIAVGALATPADYYEFRYKIAKAHEEAKKVIKSVGKEFGERFGRDYSKMIETGYIEDADFVFMGMGSLMGTVKEAVDLLRKEGYKVGYAKVRWFRPFPKEELLEIAESVKGIAVLDRNFSFGQEGILFTEAKGALYNTGVRPIMKDYIVGLGGRDFTVRDVKAIAEDMKKVVESGKLDKEIEWYHLKR
soluble on expression in E. coli: soluble

EVQLVESGGGLVQPGRSLRLSCAASGFTFDDYAMHWVRQAPGKGLEWVSGISWNSGSIGYADSVKGRFTISRDNAKNSLYLQMNSLRAEDTAVYYCARGRGFHYYYYGMDIWGQGTTVTVSSASTKGPSVFPLAPSSKSTSGGTAALGCLVKDYFPEPVTVSWNSGALTSGVHTFPAVLQSSGLYSLSSVVTVPSSSLGTQTYICNVNHKPSNTKVDKKVEPK
soluble on expression in E. coli: soluble

MKIQLIAVGTKMPKWVEEGFQEYRRRFPHDMPLELVEITAGKRGKNADIARILQKEGEAMLAAVPKGNRIVTLDIPGKRWDTEELAVQLESWKLDGRDVSILIGGPEGLAPACKAAADQSWSLSPLTLPHPLVRVVMAESLYRAWSITTNHPYHRELEHHHHHH
soluble on expression in E. coli: soluble

MIGSYALSILDEAEVLVDLLTGGAPKVNKIFLITSSRRKRPDYYGELESCLKEMDLNLEIITVDDVSNFFEVYLILEKICELEGTPKWVNVGSGHGIMLSALAVHAFIKDALLVAFDKEEKKVIVTDIKKLKRIKIYQKRYFELISELGEGEKTITELSKIFNLSRSAMSRRLKHMETLNIVVRKGTGRSNIPYVFKLTELGRKLL
soluble on expression in E. coli: soluble
